This note sets out measurements from patent publication US20240245805A1 (Orna Therapeutics, Inc., priority 2020, published 2024).

B1: Simian Sapelovirus 1 (nucleic acid, listed as Sapelovirus sp.)
DNA: CCAAGGATCTGTTGCATAGGCGTTGTATCCCCTAACCTTTTACCTACCCATCCCAATAGGACTGGTATTTCGGTTTTGATTGAGTAATGGATACTGATTCTATACCTGTTACCCATTCAGGGGAAAAATGGAGTTTCTTTCATGGATCTGACTTGATATGACCAAGAGTCAACACTTTGCGTGTTGGCCGTATGGAATGCTTTAAGGTTTATTCTTTGGATTATGACTTCAGGGTTGGCCGCCCAGGATAAAAGGCAATTGTGGTAAGTGATGTTAGTCATTGGTGGTTGAAACCTGCCTAAGACGTCCTAGGTCTACGCTGTGCGGGCCGAAGTAAGCTTAGGAATAACAGGGAGTATGCCATTTTCTGCTTTCACCCAACACGACCGTACACGAAAGAGCTAGAGGCACTTTGGGGCAAAGGGAAAAGCTTTGCTTAGCCCGAATGTTCATTTGAGTCCTTGACGAATGCGTCCCGTCTGTCCCGACGGTGAGGCGTATGGCGCATGCTCATGGCATTACCCAATGGTGTATCTGTGAGGGGGGGGCTCCTCACACTTAGTCTAGTGCTACCTGACAGGGCCGCGGCTGGTCGTTTGTGTATGGTATAACCAGTAGTAATCCCCCATGGATTGCTTTAACTTCCCCTCCTCCCTTACCAAGACATTCTCTAAG
B2: EV K (nucleic acid)
chain: TCAGCCTGACGCAAGTGCCTCCATTGGAGTCTCTCCAAGCCCTCCGGGGCTTGGAGGGCGCCGACCCCCTGCCTAGGGGGAGCCCACGACACGGCTGGAGTCCATTGGCACACCGCAGCCACGATTCAAGCCAGAATTGAAAGCGGGAAGCACTTCTGTCTCCCCGGTGTGGATCATACGCTGTACCCACGGCGAAAAGTGAAGCATCGTTACCCGACTCGGTACTTCGAGAAGCCCAGTACAGTTGTGGATCTCTGCAGGGTATACGCTCAGCGTGACCCCTACGTAGTTCCTTGAGATGGCTGAGAGAACACCCCACGGGCGACCGTGTCTCTCGGCGCGTGGCTCAAGGCCGGGCCTTCAGTGGCTCGGTGCCTTGCAGAGTGAAGCCTCCGAACAGCCTATTGAGCTACCGTTTAGCCTCCGCCCTCTTGAATGCGGCTAATCCTAACCATGGAGCGCCCGCCCACAGTCCAGTGGGTAGAGCGTCGTAACGCGCAAGTCCGTGGCGGAACCGACTACTTTAGAGTGGCGTGTTTCCAATTTATCCTTTATAAAGTTGCTTATGGTGACACCACAAGAGATCCACGATTTCTTGTTTCTTATCACTGAGACACAAGTCATATTCATCAATCTTTATTGCGGAATTAACTTGGTGCGTCCAAACACATCAGC
modifications: lipid formulation; Enterovirus K
B3: HRVA73 (nucleic acid, listed as Rhinovirus sp.)
chain: TTAAAACTGGGTTTGGGTTGTTCCCACCCAAACCACCCACGCGGTGTTGTACACTGTTATTCCGGTAACCTTGTACGCCAGTTTTATATCCCTTCCCCCCCTTGTAACTTAGAAGACATGCGAATCGACCAATAGCAGGCAATCAACCAGATTGTCACCGGTCAAGCACTTCTGTTTCCCCGGCTCTCGTTGATATGCTCCAACAGGGCAAAAACAATTGGAGTCGTTACCCGCAAGATGCCTACGCAAAACCTAGTAGCATCTTCGAAGATTTTTGGTTGGTCGCTCAGTTGCTACCCCAGCAATAGACCTGGCAGATGAGGCTAGAAATACCCCACTGGTGACAGTGTTCTAGCCTGCGTGGCTGCCTGCACACCCACACGGGTGTGAAGCCAAAGATTGGACAAGGTGTGAAGAGTCACGTGTGCTCATCTTGAGTCCTCCGGCCCCTGAATGCGGCTAACCTTAACCCCGTAGCCATTGCTCGCAATCCAGCGAGTATATGGTCGTAATGAGTAATTACGGGATGGGACCGACTACTTTGGGTGTCCGTGTTTCACTTTTTACTTATCAATTTGCTTATGGTGACAATATATATAGATATATATTGACACC
modifications: lipid formulation
B4: Simian Sapelovirus 2 (nucleic acid, listed as Sapelovirus sp.)
DNA: TTTTAACTTGTTATGACATTCAAGGAAAAAATGTCTTTTTCATTATGGGACTGACCTGTTTATGAACATGAGCAGCGGCACTGCTCCACGGGCTATCCGTGTAAGAAATATTGATTATTCTTATGGATCATGATTTCAGGGTTGGCCGCCCAGTCTAAAAGGCAATTGTGGTAAGCTATGTAAGTAGTTGGCTGTTGAAAGGAGCCAAGTACATCCTAGGTCTACGCTGTGCGGGCCGAAGTAAGACTTGGAACAACTCTGAGTAGGCAGTTTTTCTCTTTAGCCCAACACGACCGCATACTGAAGAGCTAGAGGCACTTTGGGGCAAAGGTAAAAGCATTGCTTAGACCGAATGTTCAATGAGACCTTGACGAGTGCTGTCACAGTGTCCCCTGATGGCAGTATGGCGCATGCTCTTGGCATTACCCATATGTGTATCTATAGGGGGGGGGCCCCCTATACTTAGTCTAGTGCTACCTGACAGGGCCGCGGCTGGTCGTCGGTGTGTGGTATAACCAGTAGTAATCCCCCATGGATTGCTTTAACTCCCCCTCCTCCCTCAACAAAACTTTCTCTAAG
B5: Parabovirus C (nucleic acid)
DNA: GATGTATCCCCATCCCCCAGTGTGTATGCCATACTGCATAGCTCGCCTATGCCCTATGGATTCACAACCCTTTCATATACCCTCCCTACCCAACCCCGTAACCACATGCTTTACTCCGCTTGGGGTTTTGCGGCCCCATGTTGTGACGAAATGGCTACGCAATCAATGCGGCTAATGGGGCCTGCCGCTTTTAAGTGGCCCCAGTTAGAAGTTTATGCACACCCGCCCATTAGGAGGCCACCAGCCAGGTGGTCAGAGGGCAAGCACTTCTGTTTCCCCGGTGAAGTTTGATAAGCTGTGCCCACGGCTGAAGCAGACAGATCCGTTACCCGCCTCACTACTACGAGACGGCTAGTAGTGTGTAATATCCGAATTTCATTGATCCGGGTGTTCCCCCCACCCAGAAACGTGTGATGAGGAGCGGCACCCCTCCTATGGCAACATAGGGCCTCTCCTGCGCTGGCACACGGGCTCTATGAGCATGAAATCAGGAGAAAGTCACACGAAGACCTTATTGTGCTAGTGTTGATTCCTCCGCCCCCCTGAATGCGGCTAATCCCAACTCCGGAGCGCCCGCTGGCAAACCCGCCAGAAGAGCGTCGTAATGCGTAAGTCTGGAGCGGAACCGACTACTTTGGGTGTGGCGTGTTTCCTTTATTTCCTTTGTATTTGTAT
modifications: lipid formulation; Parabovirus C
B6: Felipivirus 127F (nucleic acid, listed as Felipivirus sp.)
chain: GATGTCGGATGACGGCTGGCCACCGGGGAAAAACGGCAAATGTGCACCACCTCTGCAACCCACGCCGACCACGTTTAACCATGGCGTTAGTAGGAGTGGACCACTGCAGTGGGCTCTGGTGTGCGACAGTCAGTGGTAGAGTAGACAGTCCTGACTGGGCAATGGGACCGCGTTGCGTATCCCTAGGTGGCATCGAGATTCCTCTGCTACCCACCAGCGTGGACTCCTATGGGGGGGGCCCCATAGGCTAGGTCTATACTGCCTGATAGGGTCGCGGCTGGTCGACCACTGACTGTATAACCAGTTGTAACTCACT
B7: HRVC3 QPM (nucleic acid, listed as Rhinovirus sp.)
chain: TTAAAGCTGGATCATGGTTGTTCCCACCATGATTACCCACGCGGTGCAGTGGTCTTGTATTACGGTACATTTCCATACCAGTTTTATACACCCCACCCCGAAACTCATAGAAGTTTGTACACAATGACCAATAGGTGGTGGCCATCCAGGTCGCTAATGGTCAAGCACTTCTGTTTCCCCGGCACCCTTGTATACGCTTCACCCGAGGCGAAAAATGAGGTTGTCGTTATCCGCAAAGTGCCTACGAAAAGCCTAGTAACACTTTGAAAACCCATGGTTGGTCGCTCAGCTGTTTACCCAACAGTAGACCTGGCAGATGAGGCTAGACATTCCCCACCAGCGATGGTGGTCTAGCCTGCGTGGCTGCCTGCACACCCTGCCGGGTGTGAAGCCAGAAAGTGGACAAGGTGTGAAGAGCCTATTGTGCTCACTTTGAGTCCTCCGGCCCCTGAATGTGGCTAACCCTAACCCCGTAGCTGTTGCATGTAACCCAACATGTATGCAGTCGTAATGGGCAACTATGGGATGGGACCAACTACTTTGGGTGTCCGTGTTTCCTGTTTTACTTTTTCATTGCTTATGGTGACAATTGTATCTGATACACTTGTTACC
modifications: lipid formulation
B8: Rabovirus A NYC-B10 (nucleic acid)
DNA: CCGACCCCACTGGTCGAAGGCCACTTGGCAATAAGACTGGTGGAACAAGGTCGCCTGTAGTTGATTGGAACCTTCTTTCTAATGACTTATGTCAGCGGTGCTACTCACACCGTAACTCTCCTACCCTATCCCCACGCTTGTGGAACTAGGAGGGGATGAGTGATTCAAGTAAGTACTGTCAGAATGGTGAAAATAATCTGATTCTGAAACGCTATGGATCCATCGAAAGATGGGGCTACACGCCTGCGGAACAACACATGGTAACATGTGCCCCAGGGGCCGAAAGCCACGGTGATAGGATCACCCGTGTAGTTTGAGATCATATCAATGTTCATAGTCTAGTAAGATGATTTGAAATCTAACTGGTCTGATGGCTAACTGCTTGTCTTATTGCGGCCTAAGGATGTCCTGCAGGTACCTTTAGAGAACCTTAAGAGACTATTGATCTGAGCAGGAGCCAAGGTGGTCTTTCCCAGCCTTGGTTAAAAAGCGTCTAAGCCGCGGCAGGGGGCGGGAGGCCCCCTTTCCTCCCAAACTATAATATAGATTGT
modifications: lipid formulation; Rabovirus A
B9: HRVB27 (nucleic acid, listed as Rhinovirus sp.)
chain: TTAAAACAGCGGATGGGTATCCCACCATCCGACCCACAGGGTGTAGTGCTCTGGTATTTTGTACCTTTGCACGCCTGTTTCCCCATTGTACCCCTCCTTAAATTTCCTCCCCAAGTAACGTTAGAAGTTTAAGGAAACAAATGTACAATAGGAAGCATCACATCCAGTGGTGTTATGTACAAGCACTTCTGTTTCCCCGGAGCGAGGTATAAGTGGTACCCACCGCCGAAAGCCTTTAACCGTTATCCGCCAATCAACTACGTAATGGCTAGTATTACCATGTTTGTGACTTGGTGTTCGATCAGGTGGTTCCCCCCACTAGTTTGGTCGATGAGGCTAGGAACTCCCCACGGGTGACCGTGTCCTAGCCTGCGTGGCGGCCAACCCAGCTTTTGCTGGGACGCCTTTTTACAGACATGGTGTGAAGACCTGCATGTGCTTGATTGTGAGTCCTCCGGCCCCTGAATGCGGCTAACCTTAACCCCGGAGCCTTGCAACATAATCCAATGTTGTTGAGGTCGTAATGAGTAATTCTGGGATGGGACCGACTACTTTGGGTGTCCGTGTTTCCTTTTATTCTTTATATTGTCTTATGGTCACAGCATATATAGCATATATACTGTGATC
modifications: lipid formulation

The test system of the data set is HEK293 cells. In kind it is cell-based, human. The following applies: circular RNA encoding Gluc with the listed IRES (UTR truncated to 675 nt) transfected into HEK293 cells; supernatant after 24 hours.
For B1, the “Expression (luminescence from secreted Gluc protein)” value (“Expression” for short) is recorded as 6.55E+07.

Take B2: the “Expression” value is 7.52E+07. The figure for B3 is 1.08E+08. The figure for B4 is 4.24E+07.

As for B5, the “Expression” value is on record as 1.83E+07. The figure for B6 is 8.92E+06. The figure for B7 is 1.64E+07. As for B8, the figure is 1.24E+06. Turning to B9, the “Expression” value stood at 2.04E+08.
